Test results taken from article PMC8602850.

Molecular target: gC1qR-ΔΔ, gC1qR deletion mutant that removed the flexible, negatively charged loops (UniProt Q07021)
Experiment: SPR; gC1qR-WT or gC1qR-ΔΔ immobilised; two-fold dilution series of analyte injected; reference-corrected sensorgrams fit to kinetic models; apparent KD

gC1qR-ΔΔ, gC1qR deletion mutant that removed the flexible, negatively charged loops, sequence (Q07021 74-282, stated change not applied): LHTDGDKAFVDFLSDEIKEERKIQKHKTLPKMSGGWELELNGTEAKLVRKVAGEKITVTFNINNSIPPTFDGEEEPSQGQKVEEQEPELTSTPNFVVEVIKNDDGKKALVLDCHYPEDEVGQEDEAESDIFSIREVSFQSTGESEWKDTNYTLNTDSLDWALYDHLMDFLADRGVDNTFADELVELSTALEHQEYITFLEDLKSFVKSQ

SARS-CoV-2 Membrane-Envelope fusion protein, recombinant
Kd: 360 nM
